Laboratory results taken from paper PMC4937829 (Nature structural & molecular biology, 2016).
Changes are numbered by the printed parent chain. In names and notes the source's numbering stands.

T1: Spy H96L 29-124 (Escherichia coli, UniProt P77754 52-147, H96L)
T1 sequence: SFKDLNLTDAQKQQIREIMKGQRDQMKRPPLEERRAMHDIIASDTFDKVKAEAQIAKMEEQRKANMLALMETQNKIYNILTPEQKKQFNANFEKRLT

B1: Im7 L18A L19A L37A H40W (natural protein, E. coli, UniProt Q03708 1-87, looked up)
chain: MELKNSISDYTEAEFVQAAKEIEKENVAATDDVLDVALEWFVKITEHPDGTDLIYYPSDNRDDSPEGIVKEIKEWRAANGKPGFKQG
B2: wild-type (WT) E. coli Im7 (natural protein, UniProt Q03708 1-87, looked up)
chain: B1 chain with A18L, A19L, A37L, W40H
B3: Im7 L18A L19A L37A (natural protein, E. coli, UniProt Q03708 1-87, looked up)
chain: B1 chain with W40H
B4: Spy 29-124 (wild type) (domain or fragment, Escherichia coli)
chain: T1 sequence with L69H

Key:
Spy 29-124 (wild type) [1] = biological target: B4; experiment: crystal structure
Spy 29-124 (wild type) [2] = biological target: B4; experiment: other fluorescence titration
Spy H96L 29-124 = biological target: T1, Spy H96L 29-124; experiment: crystal structure
crystal structure = biological target: the molecule itself; experiment: crystal structure

| binding result (Spy 29-124 (wild type) [1]) | binding result (Spy H96L 29-124) | Binder | also measured |
| --- | --- | --- | --- |
| binds | – | SISDYTEAEFVQLLKEIEKENVAATDDVLDVLLEHFVKIT [Im7 6-45 peptide] | – |
| binds | – | Ac-ELFRQFYQLDAYPSGAWYYVPLGTQYTDAP-NH2 [bovine alpha casein S1 148-177 peptide] | – |
| – | – | B1 | binding result (Spy 29-124 (wild type) [2]): binds |
| – | binds | B2 | – |
| – | binds | B3 | – |
| – | – | B4 | binding result (crystal structure): binds |
